These results are taken from patent US20180237480A1 (UNIVERSITY OF EDINBURGH, published 2018).

One test has as its target T1, bovine fibrinogen (bovine, UniProt P02672 20-615; P02676 1-468; P12799 25-444).
T1 construct: The three chains are general knowledge about fibrinogen; also called bovine Fg
T1 sequence 1: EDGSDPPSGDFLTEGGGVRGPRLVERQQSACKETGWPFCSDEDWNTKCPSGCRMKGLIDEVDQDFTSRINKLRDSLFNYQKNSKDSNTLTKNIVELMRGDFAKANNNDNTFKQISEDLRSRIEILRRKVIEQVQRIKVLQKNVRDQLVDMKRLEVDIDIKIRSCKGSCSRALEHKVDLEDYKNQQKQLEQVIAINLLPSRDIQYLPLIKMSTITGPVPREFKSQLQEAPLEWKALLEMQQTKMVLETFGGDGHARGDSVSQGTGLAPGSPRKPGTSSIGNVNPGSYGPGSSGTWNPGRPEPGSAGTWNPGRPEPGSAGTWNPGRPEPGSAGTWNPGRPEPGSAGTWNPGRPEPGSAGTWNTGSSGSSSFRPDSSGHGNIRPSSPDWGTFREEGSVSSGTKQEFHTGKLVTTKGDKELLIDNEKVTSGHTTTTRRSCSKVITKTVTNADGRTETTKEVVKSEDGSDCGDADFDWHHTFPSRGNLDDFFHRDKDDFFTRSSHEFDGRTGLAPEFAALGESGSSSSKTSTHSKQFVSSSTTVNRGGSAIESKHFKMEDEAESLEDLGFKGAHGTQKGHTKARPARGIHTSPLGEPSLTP
T1 sequence 2: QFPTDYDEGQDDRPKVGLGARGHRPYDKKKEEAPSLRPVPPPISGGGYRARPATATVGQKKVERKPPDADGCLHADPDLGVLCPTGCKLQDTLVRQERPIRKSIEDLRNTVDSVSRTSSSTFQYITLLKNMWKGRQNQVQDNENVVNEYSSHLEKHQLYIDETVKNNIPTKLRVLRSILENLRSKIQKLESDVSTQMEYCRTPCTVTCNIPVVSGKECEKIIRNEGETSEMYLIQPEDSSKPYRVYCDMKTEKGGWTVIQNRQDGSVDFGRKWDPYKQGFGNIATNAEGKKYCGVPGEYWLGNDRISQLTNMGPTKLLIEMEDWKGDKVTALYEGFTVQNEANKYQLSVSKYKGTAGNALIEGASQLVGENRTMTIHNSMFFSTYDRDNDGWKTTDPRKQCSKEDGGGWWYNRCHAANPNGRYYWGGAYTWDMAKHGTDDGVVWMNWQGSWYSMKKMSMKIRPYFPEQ
T1 sequence 3: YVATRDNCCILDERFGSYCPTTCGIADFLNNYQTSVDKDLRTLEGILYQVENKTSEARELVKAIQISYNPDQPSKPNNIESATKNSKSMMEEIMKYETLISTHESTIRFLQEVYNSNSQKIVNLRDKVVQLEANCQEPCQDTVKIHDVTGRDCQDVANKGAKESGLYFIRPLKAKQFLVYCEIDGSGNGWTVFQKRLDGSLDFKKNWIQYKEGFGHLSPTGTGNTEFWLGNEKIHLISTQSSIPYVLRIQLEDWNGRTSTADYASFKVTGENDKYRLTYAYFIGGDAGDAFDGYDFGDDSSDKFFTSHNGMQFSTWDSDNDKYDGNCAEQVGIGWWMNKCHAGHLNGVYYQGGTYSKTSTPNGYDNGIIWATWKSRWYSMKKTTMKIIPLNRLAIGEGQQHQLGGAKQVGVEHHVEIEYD
The test is described as follows: solid phase adherence assay, 1 µg Fg per well, absorbance 590 nm.

In the next test the target is T2, human fibrinogen (human, UniProt P02671 20-629; P02675 31-491; P02679 27-437).
T2 construct: The three chains are general knowledge about fibrinogen; also called human Fg
T2 sequence 1: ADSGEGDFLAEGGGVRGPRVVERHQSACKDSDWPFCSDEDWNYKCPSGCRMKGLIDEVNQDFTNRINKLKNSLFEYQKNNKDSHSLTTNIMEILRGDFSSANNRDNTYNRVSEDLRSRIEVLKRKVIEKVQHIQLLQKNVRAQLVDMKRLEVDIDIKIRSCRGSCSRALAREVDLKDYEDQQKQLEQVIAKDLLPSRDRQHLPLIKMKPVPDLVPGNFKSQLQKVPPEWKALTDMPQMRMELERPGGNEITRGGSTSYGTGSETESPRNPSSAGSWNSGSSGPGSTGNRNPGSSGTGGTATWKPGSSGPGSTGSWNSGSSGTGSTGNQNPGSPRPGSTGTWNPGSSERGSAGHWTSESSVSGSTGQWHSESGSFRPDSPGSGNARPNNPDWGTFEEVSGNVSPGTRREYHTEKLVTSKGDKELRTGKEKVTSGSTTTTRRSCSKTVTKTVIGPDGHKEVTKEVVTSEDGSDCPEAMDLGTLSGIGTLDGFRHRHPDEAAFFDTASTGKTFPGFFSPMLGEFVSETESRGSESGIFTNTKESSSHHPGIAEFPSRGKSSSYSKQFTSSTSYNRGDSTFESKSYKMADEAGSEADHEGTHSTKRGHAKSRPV
T2 sequence 2: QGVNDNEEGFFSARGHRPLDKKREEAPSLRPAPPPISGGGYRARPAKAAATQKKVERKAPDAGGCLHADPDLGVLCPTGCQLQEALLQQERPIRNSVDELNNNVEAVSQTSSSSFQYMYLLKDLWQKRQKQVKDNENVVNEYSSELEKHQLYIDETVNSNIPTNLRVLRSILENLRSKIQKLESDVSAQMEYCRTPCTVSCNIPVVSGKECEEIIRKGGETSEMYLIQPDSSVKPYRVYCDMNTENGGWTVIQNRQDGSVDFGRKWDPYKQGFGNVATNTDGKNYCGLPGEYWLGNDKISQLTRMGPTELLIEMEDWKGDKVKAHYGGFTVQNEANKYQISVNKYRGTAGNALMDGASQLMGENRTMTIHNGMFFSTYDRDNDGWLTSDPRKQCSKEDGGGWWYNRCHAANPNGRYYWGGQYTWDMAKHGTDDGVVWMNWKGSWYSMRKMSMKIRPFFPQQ
T2 sequence 3: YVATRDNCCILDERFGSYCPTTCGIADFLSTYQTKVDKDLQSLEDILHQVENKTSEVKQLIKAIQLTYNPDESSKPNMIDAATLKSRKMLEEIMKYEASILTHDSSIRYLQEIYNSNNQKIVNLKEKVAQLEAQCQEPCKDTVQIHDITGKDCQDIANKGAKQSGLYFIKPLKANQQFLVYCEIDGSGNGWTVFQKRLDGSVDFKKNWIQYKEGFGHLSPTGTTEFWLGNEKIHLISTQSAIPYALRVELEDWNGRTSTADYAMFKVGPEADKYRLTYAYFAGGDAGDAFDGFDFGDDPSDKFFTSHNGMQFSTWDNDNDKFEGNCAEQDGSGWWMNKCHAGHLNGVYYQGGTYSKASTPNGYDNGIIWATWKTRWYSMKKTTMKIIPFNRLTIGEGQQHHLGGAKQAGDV
The description is as above.

B1: SpsD of S. pseudintermedius ED99, full-length, expressed on L. lactis MG1363 (pOri23) (other)
chain: SEVSATTQEHNVETEQTKTEGELTTEVAQQAVSESAPIAENMQKTTSVASENAKEVTASDSTQEVTKTEAKDTATMKDSEIAQPVSEVNKPVTQTAAPVAEPSTANKQTSPRQVQELTAPMDTKVINVENGTDVTSKVKVEKSSITGHQNKDKTYHQSNTVNPHKAERVTLNYDWSFENGIKAGDYFDFQLSDNVDTNGISTIKKVPHIMDSQNSEQIIAYGEINENNRVRYRFMDYVNQKENLKGKLSLNLFIKPDKVQDEGKITVTSQLGKEMTSQEFDIKYIDGVKSPSGITLNGRLDELSKADQSFTHYSIFKPKHNNLTNVTLRGTVSNNAQQNEKNGQVNVYEYIGQGELPQSAYANVNDTKQFNDITKSMKSIKNNSNGYEITFDMNKDNHPYIIVYQGHFNNNAKDFDFSTNATGYQNLNQSEYSYYWPYNYSFNLTWDNGVAFYSNNASGEGNDKPVPPTYGYSPTVNTIQDTHADYPVMTFQQPGTLEETEDSMPITTLTESGEDRGENTSPIIETTEDSQPVEFEEETNHGIQDVTLHADAVDFEEETNHGEQDTVHHSDVVEYDEDTTTGMLTGAISDHTTEEGTMEYTTDGLLIEFDDEMNPNVSGQYDDITTDTIEESSHIDTFTELESEFGQHDGIVTFEEDTIVEKPKTEKGNRVPLVIDLSTPKHNHQFNIQPTDPNIDTSATYRIGNFVWRDEDHNGVQNDGEHGLEGVLVTLKTADGVVLNTTTSDANGHYQFTNVQKGKYIVEFTTPEGYEATSKHTTANTEKDSDGLIANIDVTQDDMSIDAGFFPLENWNPQPEPKNPDDREKPAPEQPDVPQPEPKNPDDREKPAPEQPDVPQPEPKNPDDREKPAPEQPDVPQPEPKNPDDKEKPAPEQPDVPQPEPKNPDDKEKPAPEQPDAPQPKPMLPGEKVKPKPTHPGEAMQTTPQDKSTSQTDEALPKTGESSSQSSALIFGGLLSLLGLGLLRRSSKQNRSSMK
notes: also called L. lactis expressing SpsD; putative MSCRAMM SpsD
With B1, the binding result with bovine fibrinogen and with human fibrinogen was “binds” in each case.
